Results on four molecules are retold here after patent US20260209362A1 (VIB VZW, published 2026).

For assay [1], the target named is T1, biotinylated human recombinant IL-12Rβ2 (produced in-house) (human, UniProt Q99665 24-622, random biotinylated).
T1 construct: Soluble recombinant protein used for panning, ELISA and BLI; also called hIL-12RB2; hIL12RB2
T1 sequence: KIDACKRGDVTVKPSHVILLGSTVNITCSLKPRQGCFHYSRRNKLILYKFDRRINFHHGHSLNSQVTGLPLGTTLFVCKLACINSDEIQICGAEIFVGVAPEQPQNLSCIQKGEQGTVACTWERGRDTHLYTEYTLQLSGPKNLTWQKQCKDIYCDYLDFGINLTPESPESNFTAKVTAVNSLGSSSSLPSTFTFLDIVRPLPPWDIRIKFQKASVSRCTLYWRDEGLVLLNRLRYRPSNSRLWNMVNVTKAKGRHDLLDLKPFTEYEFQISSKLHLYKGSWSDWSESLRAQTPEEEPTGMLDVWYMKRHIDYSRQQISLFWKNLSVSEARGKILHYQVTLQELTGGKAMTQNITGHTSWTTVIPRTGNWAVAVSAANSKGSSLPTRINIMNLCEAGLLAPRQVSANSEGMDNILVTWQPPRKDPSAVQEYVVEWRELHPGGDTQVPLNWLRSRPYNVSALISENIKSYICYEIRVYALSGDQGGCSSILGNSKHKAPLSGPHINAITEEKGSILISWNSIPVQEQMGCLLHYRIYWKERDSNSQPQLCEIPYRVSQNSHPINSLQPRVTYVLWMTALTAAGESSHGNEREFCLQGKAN
Put plainly: ELISA, periplasmic extract on biotinylated human IL-12Rβ2; signal over streptavidin control well.

Assay [2] has as its target T1, biotinylated human recombinant IL-12Rβ2 …. As to the kind of experiment: BLI (Octet Red), periplasmic extract on biotinylated human IL-12Rβ2 on streptavidin tips.
Assay [3] shares this target. As to the kind of experiment: BLI (Octet Red), periplasmic extract on biotinylated human IL-12Rβ2 on streptavidin tips, 1:1 model. A general note: Biolayer interferometry detects binding as a change in optical thickness at a sensor tip.
Assay [4] concerns the target T2, biotinylated mouse recombinant IL-12Rβ2 (produced in-house) (mouse, UniProt P97378 24-637, random biotinylated).
T2 construct: Soluble recombinant protein used for panning, ELISA and BLI; also called mIL-12RB2; mIL12RB2
T2 sequence: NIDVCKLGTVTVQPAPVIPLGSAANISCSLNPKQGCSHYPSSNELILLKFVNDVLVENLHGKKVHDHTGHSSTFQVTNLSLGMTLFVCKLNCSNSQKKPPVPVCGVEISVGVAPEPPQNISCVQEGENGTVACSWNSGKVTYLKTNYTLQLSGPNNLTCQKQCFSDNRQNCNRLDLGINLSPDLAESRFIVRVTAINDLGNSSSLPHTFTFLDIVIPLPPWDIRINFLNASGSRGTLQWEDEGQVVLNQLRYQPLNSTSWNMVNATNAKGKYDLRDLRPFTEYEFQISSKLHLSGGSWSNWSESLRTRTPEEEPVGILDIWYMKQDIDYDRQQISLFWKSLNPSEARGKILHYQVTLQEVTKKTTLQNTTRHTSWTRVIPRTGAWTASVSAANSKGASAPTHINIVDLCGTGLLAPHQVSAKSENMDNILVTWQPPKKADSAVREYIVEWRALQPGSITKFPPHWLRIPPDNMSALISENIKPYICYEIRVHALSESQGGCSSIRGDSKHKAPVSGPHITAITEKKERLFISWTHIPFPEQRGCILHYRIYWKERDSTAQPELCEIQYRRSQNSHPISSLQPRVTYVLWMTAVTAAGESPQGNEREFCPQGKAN
As to the kind of experiment: ELISA, periplasmic extract on biotinylated mouse IL-12Rβ2; signal over streptavidin control well. Background: ELISA stands for enzyme-linked immunosorbent assay.

The target of assay [5] is T3, human IL-12Rβ2 expressed on cells (human, UniProt Q99665 24-862).
T3 construct: the cell lines are described by plasmid or cDNA number only; also called hIL-12RB2; HEK293T transiently transfected with human IL-12Rβ2
T3 sequence: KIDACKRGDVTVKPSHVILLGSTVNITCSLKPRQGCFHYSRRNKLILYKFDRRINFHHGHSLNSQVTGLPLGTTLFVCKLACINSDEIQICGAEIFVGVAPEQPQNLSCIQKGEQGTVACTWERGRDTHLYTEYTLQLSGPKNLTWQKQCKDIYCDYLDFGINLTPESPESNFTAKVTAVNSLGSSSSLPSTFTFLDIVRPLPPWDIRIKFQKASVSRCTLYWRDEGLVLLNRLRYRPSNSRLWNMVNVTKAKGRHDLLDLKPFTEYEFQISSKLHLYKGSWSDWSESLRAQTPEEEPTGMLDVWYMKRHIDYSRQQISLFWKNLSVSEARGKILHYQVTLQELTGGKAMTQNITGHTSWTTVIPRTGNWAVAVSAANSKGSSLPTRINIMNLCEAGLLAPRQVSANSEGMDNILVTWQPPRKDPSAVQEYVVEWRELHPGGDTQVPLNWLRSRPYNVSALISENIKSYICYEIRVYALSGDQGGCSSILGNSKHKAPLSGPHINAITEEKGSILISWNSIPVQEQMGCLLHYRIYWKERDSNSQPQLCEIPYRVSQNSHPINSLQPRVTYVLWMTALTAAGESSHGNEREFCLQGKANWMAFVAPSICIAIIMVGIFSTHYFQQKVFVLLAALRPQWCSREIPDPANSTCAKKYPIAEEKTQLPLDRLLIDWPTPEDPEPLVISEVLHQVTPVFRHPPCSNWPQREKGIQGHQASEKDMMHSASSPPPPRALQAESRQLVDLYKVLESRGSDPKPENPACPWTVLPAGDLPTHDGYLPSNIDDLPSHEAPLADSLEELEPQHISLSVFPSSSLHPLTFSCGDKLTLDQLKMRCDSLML
As to the kind of experiment: flow cytometry, periplasmic extract VHH-HA on HEK293T cells transiently expressing human IL-12Rβ2.

For assay [6], the target named is T2, biotinylated mouse recombinant IL-12Rβ2 …. As to the kind of experiment: ELISA, periplasmic extract on biotinylated mouse IL-12Rβ2.
For assay [7], the target named is T4, biotinylated recombinant mouse IL-12Rβ2 (produced in-house) (mouse, UniProt P97378 24-637, random biotinylated).
T4 construct: also called mIL-12RB2; mIL12RB2
T4 sequence: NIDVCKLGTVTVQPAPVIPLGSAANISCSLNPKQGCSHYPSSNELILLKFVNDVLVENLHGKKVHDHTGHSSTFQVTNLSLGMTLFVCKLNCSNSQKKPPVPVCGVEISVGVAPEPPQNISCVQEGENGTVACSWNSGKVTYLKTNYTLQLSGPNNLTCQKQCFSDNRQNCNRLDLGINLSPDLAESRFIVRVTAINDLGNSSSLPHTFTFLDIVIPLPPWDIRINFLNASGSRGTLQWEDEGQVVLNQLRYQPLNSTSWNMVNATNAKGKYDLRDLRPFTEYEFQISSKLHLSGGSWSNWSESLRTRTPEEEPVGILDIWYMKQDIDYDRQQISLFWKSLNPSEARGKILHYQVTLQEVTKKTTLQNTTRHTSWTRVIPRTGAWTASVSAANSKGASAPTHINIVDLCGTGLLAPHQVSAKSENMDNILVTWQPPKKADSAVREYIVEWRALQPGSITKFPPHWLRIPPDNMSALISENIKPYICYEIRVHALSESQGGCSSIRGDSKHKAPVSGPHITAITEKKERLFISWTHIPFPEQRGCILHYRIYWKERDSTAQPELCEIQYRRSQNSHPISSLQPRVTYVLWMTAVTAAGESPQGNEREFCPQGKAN
As to the kind of experiment: ELISA, P.E. VHH on biotinylated mIL-12RB2.

For assay [8], the target named is T5, biotinylated recombinant human IL-12Rβ2 (produced in-house) (human, UniProt Q99665 24-622, random biotinylated).
T5 construct: also called hIL-12RB2; hIL12RB2
T5 sequence: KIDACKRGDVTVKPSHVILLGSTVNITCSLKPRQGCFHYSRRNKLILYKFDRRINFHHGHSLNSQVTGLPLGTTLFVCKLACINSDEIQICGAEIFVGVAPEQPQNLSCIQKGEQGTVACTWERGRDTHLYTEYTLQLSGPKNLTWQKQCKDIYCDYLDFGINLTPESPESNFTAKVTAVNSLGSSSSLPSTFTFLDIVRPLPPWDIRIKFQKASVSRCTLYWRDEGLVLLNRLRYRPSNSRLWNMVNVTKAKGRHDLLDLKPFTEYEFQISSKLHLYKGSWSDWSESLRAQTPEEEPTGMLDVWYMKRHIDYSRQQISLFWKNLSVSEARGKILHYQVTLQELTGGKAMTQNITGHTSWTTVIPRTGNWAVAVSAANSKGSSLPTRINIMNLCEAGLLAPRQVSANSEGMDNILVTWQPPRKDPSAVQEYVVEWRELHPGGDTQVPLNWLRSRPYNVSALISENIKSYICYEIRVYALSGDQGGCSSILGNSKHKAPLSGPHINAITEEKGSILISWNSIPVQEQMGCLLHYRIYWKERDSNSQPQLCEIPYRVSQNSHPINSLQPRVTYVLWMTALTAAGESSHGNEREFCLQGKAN
Put plainly: BLI (Octet), P.E. VHH on immobilised biotinylated hIL-12RB2, 1:1 model.

The target in assay [9] is T6, human IL-12Rβ2 expressed on cells (human, UniProt Q99665 24-862).
T6 construct: HEK293T cells transiently transfected with a human IL-12Rβ2 plasmid (Genscript OHu21785); also called hIL-12RB2
T6 sequence: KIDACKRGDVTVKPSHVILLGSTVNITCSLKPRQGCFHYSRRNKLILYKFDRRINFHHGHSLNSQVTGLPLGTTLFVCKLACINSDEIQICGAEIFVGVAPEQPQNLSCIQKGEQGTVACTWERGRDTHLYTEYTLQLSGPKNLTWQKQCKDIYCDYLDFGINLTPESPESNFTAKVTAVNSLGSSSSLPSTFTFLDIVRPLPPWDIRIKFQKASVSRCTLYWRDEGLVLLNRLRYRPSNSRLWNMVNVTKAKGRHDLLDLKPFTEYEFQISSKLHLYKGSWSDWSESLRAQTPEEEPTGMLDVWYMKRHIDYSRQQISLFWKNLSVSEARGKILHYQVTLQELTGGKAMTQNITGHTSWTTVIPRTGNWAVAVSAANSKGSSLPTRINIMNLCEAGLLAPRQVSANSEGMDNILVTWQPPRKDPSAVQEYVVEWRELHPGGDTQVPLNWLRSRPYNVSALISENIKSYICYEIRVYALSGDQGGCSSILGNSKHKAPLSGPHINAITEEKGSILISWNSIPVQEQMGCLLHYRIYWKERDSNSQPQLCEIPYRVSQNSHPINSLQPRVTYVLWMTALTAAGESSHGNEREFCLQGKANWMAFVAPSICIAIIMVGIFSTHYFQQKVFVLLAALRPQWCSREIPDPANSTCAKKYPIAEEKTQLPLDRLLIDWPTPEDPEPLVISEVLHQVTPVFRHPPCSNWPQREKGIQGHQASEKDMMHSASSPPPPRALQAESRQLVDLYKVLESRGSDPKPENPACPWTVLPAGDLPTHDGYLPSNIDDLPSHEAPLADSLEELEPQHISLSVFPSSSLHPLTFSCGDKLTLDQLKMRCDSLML
Put plainly: flow cytometry, P.E. VHH on HEK293T cells transiently expressing hIL-12RB2. (In general: A flow cytometer gives signals particle by particle.)

Assay [10] concerns the target T5, biotinylated recombinant human IL-12Rβ2 …. As to the kind of experiment: BLI (Octet), P.E. VHH on immobilised biotinylated hIL-12RB2.

The koff is the first-order rate constant of dissociation.

B1: anti-IL-12Rβ2 VHH clone 3CAHS41 (clone ID 20394) (VHH)
VHH: QVQLQESGGGLVQAGDSLRLSCAASGRTFDTYIVGWFRQAPGKEREFVSALSWSDDTTIRDDSLRGRFTISRDNAKNTVYLLMNSLKPEDTAVYYCAAKAKPPAATWSSYRNREWYDYWGQGTQVTVSS
notes: Tested as periplasmic extract; not shown: C-terminal HA tag
As for B1, the “hIL12RB2/control (ELISA)” value in [1] is 8.77 ratio. Besides, the Response in assay [2] worked out at 0.509. For the same molecule, in [3], the koff came to 0.00441 s⁻¹. For the same molecule, in assay [4], the “mIL12RB2/control (ELISA)” value was found to be 1.35 ratio. Moreover, in assay [5], the “% cells bound” value worked out at 43.3% and the dMFI came to 971. The binding result in assay [6] is on record as “no binding”.

B2: anti-IL-12Rβ2 VHH clone 3CRHS106 (clone ID 20429) (VHH)
VHH: QVQLQESGGGLVQPGGSLRLSCKASGFTFSTYAMSWVRQAPGKGLEWVSAVNSGGLSTDYADSVEGRFTISRDDAKNMLFLQMNSLKPEDTARYYCAKYEDCSDYMCHRDRAGYWGQGTQVTVSS
notes: as for B1
On to B2, for which the “hIL12RB2/control (ELISA)” value in assay [1] came out at 10.2 ratio. The Response in assay [2] came to 0.297. The koff in [3] was found to be 0.00355 s⁻¹. In addition, the “mIL12RB2/control (ELISA)” value in [4] was 1.03 ratio. In assay [5], the “% cells bound” value was 43.3% and the dMFI came out at 1010. The binding result in assay [6] is “no binding”.

B3: anti-IL-12Rβ2 VHH clone 3CAHS142 (clone ID 20401) (VHH)
VHH: QVQLQESGGGLVQAGESLTLSCIASGVIKDYAMGWFRQAPGKEREFVAAISWSGVSIYYADSVKGRFTISRDNAKNTVYLQMNSLEPEDTAVYYCAGTEGAYTVAGGSTFGYDMDYWGKGTQVTVSS
notes: as for B1
For B3, the “hIL12RB2/control (ELISA)” value in assay [1] was found to be 4.98 ratio. In addition, the Response in assay [2] was found to be 0.352. In addition, the koff in [3] was 0.00324 s⁻¹. In addition, in [4], the “mIL12RB2/control (ELISA)” value amounted to 1.07 ratio. In [5], the “% cells bound” value was 40.9% and the dMFI is 812. In addition, in assay [6], the binding result was “no binding”.

B4: anti-IL-12Rβ2 VHH clone 3CRHS51 (VHH, not shown: small tags and cut ends)
VHH: QVQLQESGGGLVQPGGSLRLSCAASGFTFSTYAMSWVRQAPGKGLEWVSAVNSGGLSTDYADSVEGRFTISRDDAKNMLFLQMNRLKPEDTARYYCAKYEDCSDYVCDRAGYWGQGTQVTVSS
notes: tested as periplasmic extract; also called 3CRASS1
On to B4, for which, in assay [7], the binding result is given as “no binding”. For the same molecule, in [8], the koff stood at 0.0043 s⁻¹. Moreover, the dMFI in assay [9] worked out at 1140. Further, the Response in [10] is 0.327.
